Data reported in patent CN106084046A (UNIV SUN YAT SEN, dated 2016).

Legend:
[1] = target: CD3 on Jurkat靶标细胞 (human) (UniProt P07766); assay: flow cytometry, culture supernatant of the negative control sdAb on Jurkat cells (TG1 background supernatant: 132.03)
[2] = target: T1, CD3-His蛋白(MP-5) (human, UniProt P07766 23-126); assay: BLI (Octet RED96) off-rate screen, sdAb-SASA from expression medium captured on BSA-coated biosensor, 100 nM CD3 in solution, 30°C, 1:1 Langmuir model
T1 construct: Immunogen and panning antigen; also called CD3蛋白; not shown: His tag
T1 sequence (P07766 23-126): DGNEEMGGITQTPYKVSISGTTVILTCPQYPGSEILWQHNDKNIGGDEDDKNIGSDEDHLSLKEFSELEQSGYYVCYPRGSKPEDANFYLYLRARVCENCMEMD

[3] = target: CD3 on Jurkat靶标细胞 (human) (UniProt P07766); assay: flow cytometry, culture supernatant on Jurkat cells

## NC-sdAb(相同形式的非相关性sdAb) (VHH)
[1]
  MFI: 115 MFI

B1: 抗CD3单域抗体 A30249 (VHH)
VHH: QVKLEESGGGLVQAGGSLRVSCTASGRTFDTMGWFRQAPGKEREFVAAVRWSSGNTLYGNTVKGRFTISRDTATNTVYLQMSSLKHEDTAVYYCAARVGGRGAADHWGQGTQVTVSS
notes: Llama sdAb from a phage display library; Tested as sdAb-SASA protein in crude expression medium / culture supernatant, not purified; also called sdAb; sdAb-SASA; not shown: SASA fusion partner from the pFASEBA vector (sdAb-SASA protein in expression medium)
[2]
  koff: 4.92e-05 s⁻¹
[3]
  MFI: 217 MFI
